Results taken from the nanobody polyreactivity screen of Harvey et al. (2022).

assay: yeast display, Sf9 membrane polyspecificity reagent, FACS + sequencing; frameworks hold sequencing errors
Procedure, shortened: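 Galactose induction of a Saccharomyces cerevisiae BJ5465 synthetic nanobody display library ran 36–48 hours. The cells were then stained for 1 hour at 4 °C with 10% biotinylated, detergent-solubilized Sf9 membrane reagent, pulled down on streptavidin microbeads and FACS-sorted into low and high (top ~1%) gates on expression and reagent-binding fluorescence. Labels for polyreactivity follow the gate of origin.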

Sequence | polyreactivity (PSR sort gate)
QVQLVESGGGLVQAGGSLRLSCAASGFIFTQNGMGWYRQAPGKERELVAAISWSAGGTYYADSVKGRFTISRDNAKNTVYLQMNSLKPEDTAVYYCNARVYNVFREFNSWGQGTQVTVSS | low polyreactivity
QVQLVESGGGLVQAGGSLRLSCAASGFIFTQYAMGWYRQSPGKERELVAGITSSGNTYYADSVKGRFTISRDNAKNTVYLQMNSLKPEDTAVYYCAARSYVRRFDGGYWGQGTQVTVSS | high polyreactivity
QVQLVESGGGLVQAGGSLRLSCAASGFIFTRNVMGWYRQAPGKEMELVASISKSSGSTYYADSVKGRFTISRDNAKNTVYLQMNSLNPEDTAVYYCATYAKQLSPYYYWGQGIQVTVSS | high polyreactivity
QVQLVESGGGLVQAGGSLRLSCAASGFIFTRYAMGWYRQAPGKEREFVARIDSSGGSTYYADSVKGRFTISRDNAKNTVYLQMNSLKPEDTAVYYCAAVGYRFGSYYWGQGTKVTVSS | high polyreactivity
QVQLVESGGGLVQAGGSLRLSCAASGFIFTRYAMGWYRQAPGKERELVAVITSSGGTYYADSVKGRFTISRDNAKNSVYLQMNSLKPEDTAVYYCNADFYRVAYLRRYSHFDYWGQGTQVTVSS | high polyreactivity
QVQLVESGGGLVQAGGSLRLSCAASGFIFTSYAMAWYRQAPGKERELVAAIDYSGGSTYYADSVKGRFTISRDNAKNTVYLQINSLKPEDTAVYYCSAGEGLWPGSQTYDYWGQATQVTVSS | low polyreactivity
QVQLVESGGGLVQAGGSLRLSCAASGFIFTSYAMGWYRQAPGKERELVAAIDYSGGSTYYADSVKGRFTISRDNAKNTVYLQMNSLKPEDTAVYYCAAGDGLWPGSQTYDYWGQGTQVTVSS | low polyreactivity
QVQLVESGGGLVQAGGSLRLSCAASGFIFTSYAMGWYRQAPGKERELVAAITRSGGRTYYADSVKGRFTISRDNAKNTVYLQMNSLKPEDTAVYYCAAVTFYQSPARGYWGQGTQVTVSS | high polyreactivity
QVQLVESGGGLVQAGGSLRLSCAASGFIFTSYAMGWYRQAPGKERELVATISSSGGSTTYADSVKGRFTISRDNAKNTVYLQMNSLKPEDTAVYYCAAAVYVVRYVSLYRRYYWGQGTQVTVSS | high polyreactivity
QVQLVESGGGLVQAGGSLRLSCAASGFIFTYYAMGWYRPAPGKERELVATISSGGGSTYYADSVKGRFTISRDNAKNTVYLQMNSLKPEDTAVYYCAASRRITGIRYLNRYEYWGQGTQVTVSS | high polyreactivity
QVQLVESGGGLVQAGGSLRLSCAASGFIFTYYAMGWYRQAPGKERELVARITSGGASTYYADSVKGRFTISRDNAKNTVYLQMNSLKPEDTAVYYCAAQARGWGYDYWGQGTQVTVSS | low polyreactivity
QVQLVESGGGLVQAGGSLRLSCAASGFIFVINAMGWYRQAPGKERELVAGISSGGRTNYADSVKGRFTISRDNAKNTVYLEMKSLKPEDTAVYYCAAAPTYKWRRKNYDYWGQGTQVTVSS | high polyreactivity
QVQLVESGGGLVQAGGSLRLSCAASGFIFVKYAMGWYRQAPGKEREFVAAISQSGGNTYYADSVKGRFTISRDNAKNTVYLQMNSLKPEDTAVYYCNAKSYTRRSYYTPTVPGDYWGQGTQVTVSS | low polyreactivity
QVQLVESGGGLVQAGGSLRLSCAASGFIFVLNAMGWYRQAPGKERELVAAIRWSGGSTYYADSVKGRFTISRDNAKNTVYLQMNSLKPEDTAVYYCAARLWLKVQYLRFFGYDYWGQGTQVTVSS | low polyreactivity
QVQLVESGGGLVQAGGSLRLSCAASGFIFVNYMGWYRQAPGKERELVAAISRGGSTNYADSVKGRFTISRDNAKNTVYLQMNSLKPEDTAVYYCAAETWYSGYTYDYWGQGTQVTVSS | low polyreactivity
QVQLVESGGGLVQAGGSLRLSCAASGFIFVPNAMGWYRQAPGKERELVAAIRWSDGTTYYADSVKGRFTISRDNAKNNVYLQMNSLKPEDTAVYYCATDHDPRYDYWGQGTQVTVSS | high polyreactivity
QVQLVESGGGLVQAGGSLRLSCAASGFIFVPNTMGWYRQAPGKERELVAAITSVGSTNYADSVKGRFTISRDNAKNTVYLQMNSLKPEDTAVYYCPATLYYQYGGDYWGQGTQVTVSS | low polyreactivity
QVQLVESGGGLVQAGGSLRLSCAASGFIFVPYAMGWYRQAPGKERELVAAISSGGSTYYADSVKGRFTISRDNAKNTVYLQMNSLKPEDTAVYYCNKRYYLYQYRYDYWGQGTQVTVSS | low polyreactivity
QVQLVESGGGLVQAGGSLRLSCAASGFIFVPYAMGWYRQAPGKERELVASITYTGGSTYYADSVKGRFTISRDNAKNTVYLQMNSLKPEDTAVYYCASRYQYWRLHMDYWGQGTPVTVSS | low polyreactivity
QVQLVESGGGLVQAGGSLRLSCAASGFIFVRYAMGWYRQAPGKEREFVAAISGGAGSTYYADSVKGRFTISRDNAKNTVYLQMNSLKPEDTAVYYCNRVRSLRYGYWGQGTQVTVSS | high polyreactivity
QVQLVESGGGLVQAGGSLRLSCAASGFIFVSYAMGWYRQAPGKERELVAAIDRIGGITYYADSVKGRFTIARDIAKNTVYLQMNSLKPEDTAVYYCAAAARYATVRVGREYYWGQGTQVTVSS | low polyreactivity
QVQLVESGGGLVQAGGSLRLSCAASGFIFVTYAMGWYRQAPGKERELVAAITNSGGTTYYADSVKGRFTISRDNAKNTVYLQMISLKPEDSAVYYCNKPYGAETAHREFDYWGQGTQVTVSS | low polyreactivity

Sequence | polyreactivity (PSR sort gate)
QVQLVESGGGLVQAGGSLRLSCAASGFIFVTYAMGWYRQAPGKETELVAAINNSGGTTYYADSVKGRFTISRDNAKNTVYLQMNSLKPEDTAVYFCNKRYGAETAHREFDYWGQGTQVTVSS | low polyreactivity
QVQLVESGGGLVQAGGSLRLSCAASGFIFVVYAMGWYRQAPGTERELVATISSGGGTYYADSVKGRFTISRDNAKITVYLQMNSLKPEDTAVYYCAARRRRLYHFGGNNYWGQGTLVTVSS | high polyreactivity
QVQLVESGGGLVQAGGSLRLSCAASGFIFVWYAMGWYRQAPGKERELVAGITASGGSTYYADSVKGRFTISRDNAKNTVYLQMNSLKPEDTAVYYCAADAWPLWLKLTPTSGGYWGQGTQVTVSS | low polyreactivity
QVQLVESGGGLVQAGGSLRLSCAASGFIFVYNDMGWYRPAPGKERELVAAISTSGGSTYYADSVKGRFTISRDNAKNTVYLQMNSLKPEDTAVYYCAAGPSYYPFFWPDFEYWGQGTQVTVSS | high polyreactivity
QVQLVESGGGLVQAGGSLRLSCAASGFIFVYYAMGWYRQAPGKERELVAAITSDVNTYYADSVKGRFSISRDNAKNTVYLHMNSLKPEDTAVDYCNADADDYRDYQDYDYWGQGSQVTVSS | low polyreactivity
QVQLVESGGGLVQAGGSLRLSCAASGFIFWDYAMGLYRQAPGKERELVAAISDSGGDTYYADSVKGRFTISRDNAKNTVYFQINSLKPEDTAVYYCSADVELWVFRGQQYDYWGQGTQVTVSS | low polyreactivity
QVQLVESGGGLVQAGGSLRLSCAASGFIFWDYAMGWYRQAPGKEREFVATISLSVGSTYYADSVKGRFTISRDNAKNTVYLQMNSLKPEDTAVYYCAAVTWGEGFDYWGQGTQVTVSS | low polyreactivity
QVQLVESGGGLVQAGGSLRLSCAASGFIFWLNAMGWYRQAPGKERELVAASSIGGRTNYADSVKGRFTISRDNAKNTVYLQMNSLKPDDTAVYYCNKDYRSVYKGRGFDYCGQGTQVTVSS | low polyreactivity
QVQLVESGGGLVQAGGSLRLSCAASGFIFWPNAMGWYRQPPGKERELVAAISYSGGSTYYADSVKGRFTISRDNAKNTVYLQMNSLKPEDTAVYYCAKLPYRRVDYGYWGQGTQVTVSS | high polyreactivity
QVQLVESGGGLVQAGGSLRLSCAASGFIFWQYAMGWYRQAPGKERELVAAITSRGGSTYYADSVKGRFTISRDNAKNTVYLKMNSLKPEDTAVYYCARLYPRHLNGDYWGQGTQVTVSS | high polyreactivity
QVQLVESGGGLVQAGGSLRLSCAASGFIFWQYTLGWYRQAPGKERELVAAINGGSSTYYADSVKGRFTISRDNAKNTVYVQKNSRKPEDTAVYYCAADRYLYHDRYEYDYWGQGTQVTVSS | high polyreactivity
QVQLVESGGGLVQAGGSLRLSCAASGFIFWRNAMGWYSQAPGQERELVAAITSGDRTNYADSVKGRFTISRDNAKNTVYLQMNSLKPEDTAVYYCNARRYRLVSYDYWGQGTQVTVSS | low polyreactivity
QVQLVESGGGLVQAGGSLRLSCAASGFIFWRNTMGWYRQAPGKERELVAVITRGGSTYYADSVKGRFTISRDNAKNTVYLQMNSLKPEDTAVYYCAARNDYYKTFSGYDYWGQGTQVTVSS | low polyreactivity
QVQLVESGGGLVQAGGSLRLSCAASGFIFWSYAMGWYRQAPGKERELVAAIDLTGGSTYYADSVKGRFTISRDNAKNTVYLQMNSLKPEDTAVYYCNADGDTYAFTNSDSGFDYWGQGTQVSVSS | low polyreactivity
QVQLVESGGGLVQAGGSLRLSCAASGFIFWTYAMGWYRQAPGKERELVARISWSGGSTYYADSVKGRFTISRDNAKNTVYLQMNSLKPEDTAVYYCARLATLYESIEYDYWGQGTQVTVSS | low polyreactivity
QVQLVESGGGLVQAGGSLRLSCAASGFIFWYNAMGWYRQAPGKERELVASISGSGGSTYYADSVKGRFTISRDNAKNTVYLQMNSLKPEDTAVYYCAVYFFSFWGQGTQVTVSS | low polyreactivity
QVQLVESGGGLVQAGGSLRLSCAASGFIFWYYAMGWSRQAPGKERELVAAISYGGGSTYYADSVKGRFTISRDNAKNTVYLQMNSLKPEDTAVYYCAAAPRWKASRLYYWGQGTQVTVSS | high polyreactivity
QVQLVESGGGLVQAGGSLRLSCAASGFIFWYYAMGWYRHAPGKERELVAVISSGSSTHYADSVKGRFTISRDNAKNTVYLQMNSLKPEDTAVDYCAARIRTRYFTGYYYWGQGTQVSVSS | high polyreactivity
QVQLVESGGGLVQAGGSLRLSCAASGFIFWYYAMGWYRQAPGKERELVAAINSSGGSTYYADSVKGRFTISRDNAKNTVSLQMNSLKPEDTAVYYCAARAYQRGNYWGQGTQVTVSS | high polyreactivity
QVQLVESGGGLVQAGGSLRLSCAASGFIFYAYVMGWYRQAPGKERELVAAISRNGGSTYYADSVKGRFTISRDNAKNTVYLQMKSLKPEDTAVYYCAALSYYRYSQEDDYWGQGTQVTVSS | high polyreactivity
QVQLVESGGGLVQAGGSLRLSCAASGFIFYDYAMGWYRQAPGKERELVAAISSGGSTNYADSVKGRFTISRDNAKNTVYLQMNSLIPEDTEVYYCAADDRSYATWKRDYDYWGQGTQVTVSS | low polyreactivity
